# Results taken from paper PMC7381529 (Protein & Cell, 2020).
# Where “and” joins values, the source holds several entries; their conditions need not be identical. Equal entries are not always repeated.
# Molecular target: the molecule itself
# Assay: crystal structure
protein,measurement,value
"African swine fever virus p15 (mature protein p15, wild type) (natural protein) MPSNMKQFCKISVWLQQHDPDLLEIINNLCMLGNLSAAKYKHGVTFIYPKQAKIRDEIKKHAYSNDPSQAIKTLESLILPFYIPTPAEFTGEIGSYTGVKLEVEKTEANKVILKNGEAVLVPAADFKPFPDRRLAVWIMESGSMPLEGPPYKRKKEGG",stoichiometry N,2 and 6
